The source of these data is patent US20040235732A1, “Method for modulating angiogenesis using prokineticin receptor antagonists” (published 2004).

Assay in all cases: cell-based or functional assay
Assay [1] deals with human prokineticin receptor 2 (PKR2) (human).
For assay [2], the target named is T1, human prokineticin receptor 1 (PKR1) (human).
T1 chain: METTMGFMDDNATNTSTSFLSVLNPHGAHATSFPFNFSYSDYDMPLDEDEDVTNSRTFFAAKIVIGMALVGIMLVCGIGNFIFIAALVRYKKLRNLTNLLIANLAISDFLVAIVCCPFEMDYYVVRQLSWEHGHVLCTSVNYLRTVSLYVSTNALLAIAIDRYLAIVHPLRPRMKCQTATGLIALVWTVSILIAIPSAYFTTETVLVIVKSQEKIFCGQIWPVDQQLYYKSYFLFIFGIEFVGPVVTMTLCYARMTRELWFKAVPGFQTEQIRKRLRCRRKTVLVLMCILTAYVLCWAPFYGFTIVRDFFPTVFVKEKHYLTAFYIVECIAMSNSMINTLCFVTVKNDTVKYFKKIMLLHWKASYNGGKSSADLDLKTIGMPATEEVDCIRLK

Assay [3] addresses human prokineticin receptor 2 (PKR2) (human). The source holds these as a separate data set.
The target of assay [4] is T1, human prokineticin receptor 1 (PKR1).

Sequence of human prokineticin receptor 2 (PKR2) (human) (chain, as listed by the source): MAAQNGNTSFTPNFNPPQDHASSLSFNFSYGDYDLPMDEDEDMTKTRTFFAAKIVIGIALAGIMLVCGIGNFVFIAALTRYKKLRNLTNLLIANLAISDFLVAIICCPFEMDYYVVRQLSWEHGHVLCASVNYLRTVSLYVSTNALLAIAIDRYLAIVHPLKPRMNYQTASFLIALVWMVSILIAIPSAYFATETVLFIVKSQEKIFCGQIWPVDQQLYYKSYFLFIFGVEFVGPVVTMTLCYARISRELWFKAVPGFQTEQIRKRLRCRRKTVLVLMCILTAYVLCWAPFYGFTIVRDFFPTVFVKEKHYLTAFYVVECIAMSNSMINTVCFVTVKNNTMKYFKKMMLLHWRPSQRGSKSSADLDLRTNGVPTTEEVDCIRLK

B1: Met PK1 (ligand)
chain: MAVITGACERDVQCGAGTCCAISLWLRGLRMCTPLGREGEECHPGSHKVPFFRKRKHHTCPCLPNLLCSRFPDGRYRCSMDLKNINF
As for B1, the “dissociation constant (Kb), Schild analysis of calcium mobilization” value in assay [1] worked out at 48.9 nM; in assay [2], 261 nM. Besides, the “Antagonistic Activity of PK mutants (Calcium Mobilization Assay), nM; ligand PK1” value in assay [3] stood at 15 nM; in assay [4], 9 nM. The “Antagonistic Activity of PK mutants (Calcium Mobilization Assay), nM; ligand PK2” value is 30 nM in assay [3] and 90 nM in assay [4].

B2: MV PK1 (ligand)
chain: MVITGACERDVQCGAGTCCAISLWLRGLRMCTPLGREGEECHPGSHKVPFFRKRKHHTCPCLPNLLCSRFPDGRYRCSMDLKNINF
As for B2, the “dissociation constant (Kb), Schild analysis of calcium mobilization” value in assay [1] was 37.8 nM; in assay [2], 116 nM. Moreover, the “Antagonistic Activity of PK mutants (Calcium Mobilization Assay), nM; ligand PK1” value was 16 nM in assay [3] and 6 nM in assay [4]. For the same molecule, the “Antagonistic Activity of PK mutants (Calcium Mobilization Assay), nM; ligand PK2” value in assay [3] is 29 nM; in assay [4], 110 nM.
